Where no end group is shown, it is not given here. [ ]: non-standard residue; d: D form. The star is where a group is joined. Hexanoyl = CCCCCC(=O)*; Aib = CC(C)(N)C(=O)O
T1: human VPAC2 receptor (human, UniProt P41587 24-438)
T1 sequence (looked up): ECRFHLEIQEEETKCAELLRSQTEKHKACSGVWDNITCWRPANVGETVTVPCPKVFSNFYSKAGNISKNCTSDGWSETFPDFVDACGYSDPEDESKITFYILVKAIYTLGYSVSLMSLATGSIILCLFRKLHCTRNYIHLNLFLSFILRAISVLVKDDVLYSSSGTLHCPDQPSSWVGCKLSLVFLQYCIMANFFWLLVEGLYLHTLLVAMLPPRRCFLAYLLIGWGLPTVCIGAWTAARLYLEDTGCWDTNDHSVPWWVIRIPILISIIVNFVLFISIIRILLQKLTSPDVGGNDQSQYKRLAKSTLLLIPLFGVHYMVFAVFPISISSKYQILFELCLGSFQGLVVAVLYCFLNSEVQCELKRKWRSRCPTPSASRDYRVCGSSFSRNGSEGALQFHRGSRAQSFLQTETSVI


Target: T1, human VPAC2 receptor
Assay: cell-based or functional assay

Hexanoyl-HSDAVFTDNYTRLRKQVAAKKYLQS[Aib]KNKRYGGPSSGAPPPS (ends and bridges not checked) [P188] and MHSDAVFTDQYTRLRKQVAAKKYLQSIKQKRYGGPSSGAPPPS (N-terminal methionine added (M-)) [P100] are within 1.5-fold of each other in “EC50 cAMP, Alpha Screen” value: 0.32 nM for the first, 0.28 nM for the second.

First: IHSDAVFTDNYTRLRKQVAAKKYLQSIKNKRYGGPSSGAPPPS (N-terminal isoleucine added (I-)) [P105]
Second: Hexanoyl-HSDAVFTDNYTRLRK(Ac)QVAAK(Ac)KYLQSIKNKRYGGPSSGAPPPS [P193]
The “EC50 cAMP, Alpha Screen” value of the first is 46-fold higher: 8.33 nM for the first, 0.18 nM for the second.

Going from HSDAVFTDNYTRAAAKVAAKKYLQSIKNKRYGGPSSGAPPPS [P88] to HSDAVFTDNYTRAKAKVAAKKYLQSIKNKRYGGPSSGAPPPS [P94], the “EC50 cAMP, Alpha Screen” value falls from 1720 nM to 696 nM (2.5-fold).

Hexanoyl-HSDAVFTDNYTRLRKQVAAKKYLQFIKNKRYGGPSSGAPPPS [P112] and Hexanoyl-HSDAVFTANYTRLRKQVAAKKYLQSIKNKRYGGPSSGAPPPS [P158] are within 1.5-fold of each other in “EC50 cAMP, Alpha Screen” value: 0.16 nM for the first, 0.11 nM for the second.

Going from Hexanoyl-HSDAVFTDNYTRLKAQVAAKKYLQSIKNKRYGGPSSGAPPPS [P141] to Hexanoyl-HSDAVFTDNYTRLRKQVAAKKYLQSVKNKRYGGPSSGAPPPS [P109], the “EC50 cAMP, Alpha Screen” value falls from 0.72 nM to 0.22 nM (3.3-fold).

First: Hexanoyl-HSDAVFTDNYTRLRKQVAAKKYLQNIKNKRYGGPSSGAPPPS [P125]
Second: Hexanoyl-HSDAVFTDNYTRLRAQVAAQKYLQSIKNKRYGGPSSGAPPPS [P138]
The “EC50 cAMP, Alpha Screen” value of the first is 3.2-fold lower: 0.14 nM for the first, 0.45 nM for the second.

First: Hexanoyl-HSDAVFTDNYTRLRKQVAAKKWLQSIKNKRYGGPSSGAPPPS [P129]
Second: Hexanoyl-HSDAVFTDNYTRLRKQVAAKKLLQSIKNKRYGGPSSGAPPPS [P132]
The “EC50 cAMP, Alpha Screen” value of the first is 6.3-fold lower: 0.49 nM for the first, 3.1 nM for the second.

Hexanoyl-H[dA]DAVFTDNYTRLRKQVAAKKYLQSIKNKRYGGPSSGAPPPS [P101] and Hexanoyl-HSDAVFTENYTRLRKQVAAKKYLQSIKNKRYGGPSSGAPPPS [P159] are within 1.5-fold of each other in “EC50 cAMP, Alpha Screen” value: 0.21 nM for the first, 0.17 nM for the second.

Going from Hexanoyl-HSDAVFTDNYTRLRKQVAAKKFLQSIKNKRYGGPSSGAPPPS [P130] to Hexanoyl-HSDAVFTDNYTRLRRQVAARRYLQSIRNRRYGGPSSGAPPPS [P98], the “EC50 cAMP, Alpha Screen” value falls from 0.77 nM to 0.15 nM (5.1-fold).

Compared with Hexanoyl-HSDAVFTDNYTRLRKQVAAVKYLQSIKNKRYGGPSSGAPPPS [P146], Hexanoyl-HSDAVFTDNYTRLRKQVAAKKILQSIKNKRYGGPSSGAPPPS [P133] is 16-fold higher in “EC50 cAMP, Alpha Screen” value: 0.17 nM for the first, 2.7 nM for the second.

Going from Hexanoyl-HSDAVFTDNYTRLRKQVAAKKYLQSLKNKRYGGPSSGAPPPS [P107] to Hexanoyl-HSDAVFTDNYTRLRKQVALKKYLQSIKNKRYGGPSSGAPPPS [P155], the “EC50 cAMP, Alpha Screen” value rises from 0.12 nM to 0.24 nM (2-fold).

Hexanoyl-HSDAVFTDNYTRLRKQVAAKKYLQSTKNKRYGGPSSGAPPPS [P108] and Hexanoyl-HSDAVFTDNYTRLRKQVAAKKYLQYIKNKRYGGPSSGAPPPS [P127] are within 1.5-fold of each other in “EC50 cAMP, Alpha Screen” value: 0.27 nM for the first, 0.22 nM for the second.

Compared with Hexanoyl-HSDAVFTDNYTRLRKQVAAKKYLQSYKNKRYGGPSSGAPPPS [P111], Hexanoyl-HSDAVFTDNYTRLRKQVAAWKYLQSIKNKRYGGPSSGAPPPS [P153] is 3.1-fold lower in “EC50 cAMP, Alpha Screen” value: 0.34 nM for the first, 0.11 nM for the second.

Compared with Hexanoyl-HSDAVFTDNYTRLRKQVAAKKYLQIIKNKRYGGPSSGAPPPS [P113], Hexanoyl-HSDAVFTDNYTRLRKQVAAKKTLQSIKNKRYGGPSSGAPPPS [P131] is 86-fold higher in “EC50 cAMP, Alpha Screen” value: 0.26 nM for the first, 22.3 nM for the second.

First: Hexanoyl-HSDAVFTDNYTRLRKQVAAIKYLQSIKNKRYGGPSSGAPPPS [P149]
Second: Hexanoyl-HSDAVFTDNYTRLRKQVAAFKYLQSIKNKRYGGPSSGAPPPS [P148]
The “EC50 cAMP, Alpha Screen” value of the first is 4.1-fold higher: 0.41 nM for the first, 0.1 nM for the second.

Going from HSDAVFTDNYTREKEKVAAKKYLQSIKNKRYGGPSSGAPPPS [P87] to Hexanoyl-HSDAVFTDNYTRLRKQVAAKKYLQSFKNKRYGGPSSGAPPPS [P106], the “EC50 cAMP, Alpha Screen” value falls from greater than 10000 nM to 0.16 nM.

Hexanoyl-HSDAVFTDNYTRLRAQVAAKKYLQSIKNKRYGGPSSGAPPPS [P139] and Hexanoyl-HVDAVFTDNYTRLRKQVAAKKYLQSIKNKRYGGPSSGAPPPS [P99] are within 1.5-fold of each other in “EC50 cAMP, Alpha Screen” value: 0.2 nM for the first, 0.14 nM for the second.

Compared with Hexanoyl-HSDAVFTKNYTRLRKQVAAKKYLQSIKNKRYGGPSSGAPPPS [P160], Hexanoyl-HSDAVFTDNYTRLRKQVAAKKYLQQIKNKRYGGPSSGAPPPS [P124] is 150-fold lower in “EC50 cAMP, Alpha Screen” value: 13.2 nM for the first, 0.09 nM for the second.

Hexanoyl-HSDAVFTDNYTRLRAQLAAQKYLQSIKNKRYGGPSSGAPPPS [P142] and Hexanoyl-HSDAVFTDNYTRLRKQVAATKYLQSIKNKRYGGPSSGAPPPS [P152] are within 1.5-fold of each other in “EC50 cAMP, Alpha Screen” value: 0.15 nM for the first, 0.17 nM for the second.

First: Hexanoyl-HSDAVFTDNYTRLRKQVAALKYLQSIKNKRYGGPSSGAPPPS [P151]
Second: Hexanoyl-HSDAVFTDNYTRLRKQVAAYKYLQSIKNKRYGGPSSGAPPPS [P147]
The “EC50 cAMP, Alpha Screen” value of the first is 1.9-fold lower: 0.07 nM for the first, 0.13 nM for the second.

Going from HSDAVFTDNYTRLLAKVAAKKYLQSIKNKRYGGPSSGAPPPS [P89] to Hexanoyl-HSDAVFTDNYTRLRKQVAAKKVLQSIKNKRYGGPSSGAPPPS [P134], the “EC50 cAMP, Alpha Screen” value rises from 1.23 nM to 5.47 nM (4.4-fold).

Compared with Hexanoyl-HSDAVFTDNYTRLRKQVAAKKYLQLIKNKRYGGPSSGAPPPS [P114], HSDGVFTDNYTRLRKQVAAKKYLQSIKNKRYGGPSSGAPPPS [P102] is 200-fold higher in “EC50 cAMP, Alpha Screen” value: 0.14 nM for the first, 27.4 nM for the second.

Going from Hexanoyl-HSDAVFTDNYTRLRKQVAAKKYLQWIKNKRYGGPSSGAPPPS [P117] to Hexanoyl-HSDAVFTDNYTKLKKQVAAKKYLQSIKNKKYGGPSSGAPPPS [P103], the “EC50 cAMP, Alpha Screen” value falls from 0.2 nM to 0.12 nM (1.7-fold).

Hexanoyl-HSDAVFTDNYTRLRKQVAAKKYLQVIKNKRYGGPSSGAPPPS [P116] and Hexanoyl-HSDAVFTDNYTRLRKQVAAKKYLQSWKNKRYGGPSSGAPPPS [P110] are within 1.5-fold of each other in “EC50 cAMP, Alpha Screen” value: 0.12 nM for the first, 0.13 nM for the second.

HSDAVFTDNYTRAAAKVAAKKYLQSIKNKRYGGPSSGAPPPS [P88] and HSDAVFTDNYTRAKAKVAAKKYLQSIKNKRYGGPSSGAPPPS [P94] cannot be ordered by “EC50 cAMP, DiscoveRx” value: greater than 1000 nM for the first, greater than 1000 nM for the second.

In the case of HSDAVFTDNYTRLLAKVAAKKYLQSIKNKRYGGPSSGAPPPS [P89], the “EC50 cAMP, DiscoveRx” value is reported as 0.7 nM.
